Results as given in patent publication EP1876240B1 (MOCHIDA PHARMACEUTICAL CO., LTD., dated 2012).
Changes are numbered by the printed parent chain.

Tests used:
[1] = biological target: cynomolgus monkey D1D2-human D3 chimeric GPVI-human Fc fusion protein (GPVI-FFH-hFc) (cynomolgus monkey (D1, D2) and human …); experiment: SPR (BIACORE3000), GPVI-hFc coupled to CM5 chip, antibody 1.25-40 nM, bivalent analyte fit
[2] = biological target: T1, human GPVI extracellular region-human Fc fusion protein (hGPVI-hFc) (human); experiment: as above
T1 construct: expressed in COS-1, Protein A purified; also called GPVI-HHH-hFc; hGPVIHHH-hFc
Target sequence in this assay (chain, as listed by the source limits assumed): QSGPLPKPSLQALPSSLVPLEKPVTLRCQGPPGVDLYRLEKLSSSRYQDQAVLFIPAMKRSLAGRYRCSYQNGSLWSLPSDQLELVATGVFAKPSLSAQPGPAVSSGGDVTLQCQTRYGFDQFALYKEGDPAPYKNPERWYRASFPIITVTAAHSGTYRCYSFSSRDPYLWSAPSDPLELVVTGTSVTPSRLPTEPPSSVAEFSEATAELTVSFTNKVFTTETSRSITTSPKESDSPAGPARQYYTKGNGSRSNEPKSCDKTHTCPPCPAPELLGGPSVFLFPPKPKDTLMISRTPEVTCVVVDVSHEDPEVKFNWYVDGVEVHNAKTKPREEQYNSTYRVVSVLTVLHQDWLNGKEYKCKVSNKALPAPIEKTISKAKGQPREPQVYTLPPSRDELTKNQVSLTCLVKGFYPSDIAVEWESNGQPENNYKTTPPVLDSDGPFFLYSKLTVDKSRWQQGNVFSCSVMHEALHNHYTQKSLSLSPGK

[3] = biological target: T1, human GPVI extracellular region-human …; experiment: SPR (BIACORE3000) as in Example 5
[4] = biological target: T2, GPVI on cynomolgus monkey platelets (cynomolgus monkey, UniProt A0A2K5VXN2 21-318); experiment: homologous competitive binding of [125I]-labeled and non-labeled antibody on washed cynomolgus platelets (n=3, mean±S.E.)
T2 construct: whole, on cells; also called simian platelets

GPVI on human platelets = biological target: T3, GPVI on human platelets (human, UniProt Q9HCN6 21-339); experiment: homologous competitive binding of [125I]-labeled and non-labeled antibody on washed human platelets (n=3, mean±S.E.)
T3 construct: whole, on cells
T3 sequence (looked up): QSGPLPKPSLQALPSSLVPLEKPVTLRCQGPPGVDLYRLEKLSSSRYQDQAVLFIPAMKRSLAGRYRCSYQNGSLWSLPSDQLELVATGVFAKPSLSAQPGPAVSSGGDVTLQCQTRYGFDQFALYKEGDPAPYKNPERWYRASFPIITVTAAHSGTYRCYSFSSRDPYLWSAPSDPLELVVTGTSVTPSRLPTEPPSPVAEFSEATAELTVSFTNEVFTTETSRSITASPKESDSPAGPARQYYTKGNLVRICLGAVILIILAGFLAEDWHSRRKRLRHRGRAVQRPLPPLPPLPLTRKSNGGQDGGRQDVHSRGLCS

cynomolgus monkey D1D2-human D3 chimeric GPVI-human Fc fusion protein (GPVI-FFH-hFc) (cynomolgus monkey (D1, D2) and human …), sequence (chain, as listed by the source mutant limits assumed): as the sequence (chain, as listed by the source limits assumed) above, with S2R, S61H, L78P, R166G, V181M, P442S counted along it
T2 sequence (A0A2K5VXN2 entry or part of it): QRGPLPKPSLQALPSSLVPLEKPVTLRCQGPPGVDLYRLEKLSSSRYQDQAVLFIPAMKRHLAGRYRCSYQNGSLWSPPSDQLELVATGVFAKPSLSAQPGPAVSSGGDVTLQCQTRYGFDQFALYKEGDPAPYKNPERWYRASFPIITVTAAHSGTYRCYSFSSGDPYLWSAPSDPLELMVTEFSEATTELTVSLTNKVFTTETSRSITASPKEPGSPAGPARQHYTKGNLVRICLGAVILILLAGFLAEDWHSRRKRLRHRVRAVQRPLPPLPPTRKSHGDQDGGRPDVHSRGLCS

B1: F1232-37-2 (antibody, V domains shown)
VH: VQLQQSGPELVRPGESVKISCKGSGYTFTDYAIHWVKLSHAKSLEWIGVISIYYDDTNYNQKFKGKATMTVDKSSSTAYLELARLTSEDSAIYYCARRRDSSGPYAMDYWGQGTSVTVSS
VL: DIVLTQSPASLAVSLGQRATISCRASESVDSYGNSFMHWYQQKPGQPPKLLIYRASNLESGIPARFSGSGSRTDFTLTINPVEADDVATYYCQQSNEDPYTFGGGTKLEIKR
notes: mouse monoclonal antibody from hybridoma; also called F1232-37-2 (whole antibody)
Kd [1]: 1 nM | Kd [2]: 0.403 nM | KD (Relative value) against F1232-37-2 [3]: 1 relative to KD of F1232-37-2

B2: F1232-7-1 (antibody, V domains shown)
VH: B1 VH with L80M
VL: B1 VL
notes: mouse monoclonal antibody from hybridoma
Kd [1]: 343 nM

B3: F1201-18 (antibody, V domains shown)
VH: VQLVESGGGLVKPGGSLKLSCAASGFTFSSYAMSWVRQTPEKRLEWVAIISSGGSYTYYPDSVKGRFTISRDNAKNTLYLHMSSLRSEDTAMYYCARQGGGYFDYWGQGTTLTVSS
VL: B1 VL with L58V, Y100P, G104A, I110L
notes: as for B2
Kd [2]: 1.16 nM

B4: F1232-18-3 (antibody, V domains shown)
VH: VMLVESGGGLVKPGGSLKLSCAASGFTFSSYAMSWVRQTPEKRLEWVATISSGGSYTYYPDSVKGRFTISRDNAKNTLYLQMSSLRSADTAMYYCARDYGYFDYWGQGTTLTVSS
VL: B1 VL with S31N, N34I, I52F, A84T, E97T, Y100R
notes: as for B2
Kd [1]: 365 nM | Kd [2]: 1.65 nM

B5: cF1232-37-2/CHO (antibody, V domains shown)
VH: B1 VH
VL: B1 VL
notes: also called cF1232-37-2 expressed by CHO cells
Kd [4]: 20 nM | Kd (GPVI on human platelets): 17 nM

B6: F1232-24-1 (antibody, V domains shown)
VH: VQLQQSGAELVRPGVSVKISCKGSGYTFTDYAMHWVKQSHAKSLEWIGVISTYYGDASYNQKFKGKATMTVDKSSSTAYMELARLTSEDSAIYYCARSYDYDPWFAYWGQGTLVTVSA
VL: B1 VL with S31N, N34I, A84T, E97K, Y100L, G104A, I110L
notes: as for B2
Kd [1]: 0.71 nM | Kd [2]: 0.25 nM

B7: F1249-3-2 (antibody, V domains shown)
VH: EVQLVESGGGLVKPGGSLKLSCAASGFTFSSYGMSWVRQTPDKRLEWVATISSGGSYTYYSDSVKGRFTISRDNAKNNLYLQLSSLKSQDTAIYYCARDSGYFDYWGQGTTLTVSS
VL: B1 VL with D1N, R54L, I62V, N80D, V87A, S95N, Y100R
KD (Relative value) against F1232-37-2 [3]: 1.59 relative to KD of F1232-37-2

B8: F1232-17-1 (antibody, V domains shown)
VH: VQLVESGGDLVKPGGSLKLSCAASGFTFSSYGMSWVRQTPDKRLEWVATISSGGSYTYYPDNVKGRFTISRDNAKNTLYLQMSSLNSEDTAMYYCARQVYYFGSCDYWGQGTTLTVSS
VL: B1 VL with S31N, N34I, A84T, E97K, Y100W
notes: as for B2
Kd [1]: 0.177 nM | Kd [2]: 0.522 nM
